The results in this text go back to paper PMC4425688.

For orientation: Km means the concentration of substrate that gives half-maximal velocity. In general, kcat refers to the maximal rate divided by the concentration of active sites.

Substrate in the series: Nc1ccn([C@@H]2O[C@H](COP(=O)(O)OP(=O)(O)OP(=O)(O)O)[C@@H](O)[C@H]2O)c(=O)n1
Description: purified protein. It counts as biochemical, Bacteroides thetaiotaomicron. The note with it: 6 mM KDN, 10 mM MgCl2, Tris pH 7.5, 25 °C.

B1: BT1715 (Bacteroides thetaiotaomicron VPI-5482) (protein)
chain: MNYAFVVQARLGSTRLPGKILKPFYGNQSILDLMVHKLSAISNIPVIIATTNSVINEPIEKKALALGVKCFRGEENDVLKRFIDVAEYFDIQGIFRICSDNPFLDVHAARQLVEIAMKSCNDYISFDIDGTPSIKTHFGFWGEFVTLDALKRVIGFTDDLLYREHVTNYIYSHPELFNIQWISGSPVVSKHHNIRLTIDTLEDFSVAQRIYRDLQEKRVEISIEVIVDYVRRHAEYIQLMKQQIKKNSK
Consider B1, for which the Michaelis constant (Km) is 510 ± 30 µM and the kcat is 0.017 ± 0.0005 s⁻¹.
